This note sets out measurements from patent US20230295324A1.

Assay [1] deals with human OX40 on cells (CHO-K1/hu OX40) (human) (UniProt P43489). Kind of assay: cell-based or functional assay.
The target is the same in assay [2]. As to the kind of experiment: FACS, CHO-K1/hu OX40 cells. A general note: In flow cytometry, cells or beads pass a laser one at a time.
The target is the same in assay [3]. Kind of assay: FACS, blocking of biotin-human OX40L on CHO-K1/hu OX40 cells.

human OX40 on cells (CHO-K1/hu OX40) (human), sequence (P43489 29-277): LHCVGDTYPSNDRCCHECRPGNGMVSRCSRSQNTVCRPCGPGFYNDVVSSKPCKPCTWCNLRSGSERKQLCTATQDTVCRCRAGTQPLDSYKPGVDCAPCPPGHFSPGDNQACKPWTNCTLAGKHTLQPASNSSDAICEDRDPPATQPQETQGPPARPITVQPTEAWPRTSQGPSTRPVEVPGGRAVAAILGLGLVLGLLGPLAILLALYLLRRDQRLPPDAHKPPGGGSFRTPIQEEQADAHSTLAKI

B1: PR002075 (antibody, human IgG1, V domains shown)
VH: EVQLVETGGGLIQPGGSLRLSCAASGFTFSSYAMSWVRQAPGKGLEWVSAISGSGGNTYYADSVRGRFTISRDNSKNTLYLQMNSLRAEDTAVYYCANGITGTTDVDYWGQGTRVTVSS
For the molecule B1, in assay [1], the EC50, HEK293/OX40/NF-kb luciferase reporter stood at 136 nM and the Maximum fluorescence signal value, HEK293/OX40/NF-kb luciferase reporter came out at 140000 luminescence. The same molecule yielded a Maximum MFI in assay [2] of 501 MFI. For the same molecule, in assay [3], the Maximum inhibition rate (%) is 0%.
